Source: article PMC2711566

T1: recombinant TIP47 (human), O60664
T1 chain: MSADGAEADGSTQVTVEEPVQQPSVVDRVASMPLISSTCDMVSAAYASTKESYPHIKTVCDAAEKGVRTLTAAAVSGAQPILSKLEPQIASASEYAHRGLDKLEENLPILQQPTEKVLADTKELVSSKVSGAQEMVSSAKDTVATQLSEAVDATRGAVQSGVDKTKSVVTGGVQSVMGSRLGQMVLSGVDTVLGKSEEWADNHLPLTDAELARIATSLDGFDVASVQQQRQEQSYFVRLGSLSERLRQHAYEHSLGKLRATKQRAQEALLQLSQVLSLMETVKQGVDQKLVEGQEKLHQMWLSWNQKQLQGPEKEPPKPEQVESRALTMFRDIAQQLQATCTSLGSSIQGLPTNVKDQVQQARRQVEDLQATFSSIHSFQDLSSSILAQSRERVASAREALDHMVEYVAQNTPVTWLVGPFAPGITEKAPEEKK


Columns and labels:
GST = experiment: native gel or EMSA
[1] = target: T1, recombinant TIP47 (human), O60664; experiment: SEC; conditions: remark: other sources report otherwise

Chain of GST (P08515 2-218): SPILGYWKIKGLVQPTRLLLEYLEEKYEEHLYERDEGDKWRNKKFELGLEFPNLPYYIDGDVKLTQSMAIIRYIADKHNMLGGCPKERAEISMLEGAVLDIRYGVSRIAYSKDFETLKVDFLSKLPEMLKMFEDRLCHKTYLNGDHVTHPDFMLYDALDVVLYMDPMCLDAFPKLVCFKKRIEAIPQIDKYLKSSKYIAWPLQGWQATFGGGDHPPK

Molecule	stoichiometry N (GST)	stoichiometry N [1]
GST (natural protein)	2	
recombinant TIP47, O60664 1-434 (natural protein) MSADGAEADGSTQVTVEEPVQQPSVVDRVASMPLISSTCDMVSAAYASTKESYPHIKTVCDAAEKGVRTLTAAAVSGAQPILSKLEPQIASASEYAHRGLDKLEENLPILQQPTEKVLADTKELVSSKVSGAQEMVSSAKDTVATQLSEAVDATRGAVQSGVDKTKSVVTGGVQSVMGSRLGQMVLSGVDTVLGKSEEWADNHLPLTDAELARIATSLDGFDVASVQQQRQEQSYFVRLGSLSERLRQHAYEHSLGKLRATKQRAQEALLQLSQVLSLMETVKQGVDQKLVEGQEKLHQMWLSWNQKQLQGPEKEPPKPEQVESRALTMFRDIAQQLQATCTSLGSSIQGLPTNVKDQVQQARRQVEDLQATFSSIHSFQDLSSSILAQSRERVASAREALDHMVEYVAQNTPVTWLVGPFAPGITEKAPEEKK		3
